We go through three molecules from patent US20240376227A1 (published 2024).

Residue numbers refer to the chain shown, from its start.

First the molecules themselves.
B1: mouse anti-CK2α monoclonal antibody clone 10B2, mAb (10B2) (antibody, mouse IgG2b, V domains shown)
VH: QVQLQQSGAELVRPGASVTLSCKASGYTFTDYQMHWVKQTPVHGLEWIGVIDPGTGGTAYNQKFKGKAILTADKSSNTAYMELRSLTSEDSAVYYCTGFVWGTGSPVTVSS
VL: DIQMTQSPSSLSASLGERVSLTCRASQDIGNNLNWLQQEPDGTIKRLIYATSSLDSGVPKRFTGSRSGSDYSLTISSLESEDFVDYYCLQYAIFPYTFGGGTKLEIKR
notes: As printed they appear to include a leader and the first constant region residues
B2: mouse anti-CK2α monoclonal antibody clone 16C2, mAb (16C2) (antibody, mouse IgG2b, V domains shown)
VH: B1 VH with T28K, I51L, K65R, N77S, S105T, P106T
VL: B1 VL with N31S, N32S, T63S
notes: as for B1
B3: mouse anti-CK2α monoclonal antibody clone 15C1, mAb (15C1) (antibody, mouse IgG2b, V domains shown)
VH: B1 VH with Y32F, G66D, S105T, P106T
VL: B1 VL
notes: as for B1

T2 sequence (P68400 whole entry): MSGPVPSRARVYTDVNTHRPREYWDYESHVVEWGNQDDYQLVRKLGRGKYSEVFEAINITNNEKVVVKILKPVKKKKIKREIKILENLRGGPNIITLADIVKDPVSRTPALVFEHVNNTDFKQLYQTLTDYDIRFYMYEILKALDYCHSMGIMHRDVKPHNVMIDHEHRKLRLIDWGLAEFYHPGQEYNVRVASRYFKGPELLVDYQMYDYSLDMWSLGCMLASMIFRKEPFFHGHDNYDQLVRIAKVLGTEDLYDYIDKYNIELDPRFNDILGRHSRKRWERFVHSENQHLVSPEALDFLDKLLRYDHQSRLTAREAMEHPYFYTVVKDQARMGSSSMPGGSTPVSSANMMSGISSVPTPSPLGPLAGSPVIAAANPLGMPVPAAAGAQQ
T1 sequence (P68400 whole entry): as above

The first assay addresses T1, endogenous CK2α protein (UniProt P68400 1-391).
T1 construct: Native protein in cell lysates, chromatin fractions or fixed tissue sections of human origin; also called cellular endogenous CK2α protein; CK2α protein localized to the nucleolus
In words: Western blotting after immunoprecipitation, MCF-7 and Flag-CK2α-expressing HEK293 cells. The method, then:
A lysate was prepared from a breast cancer cell line MCF-7 (JCRB cell bank, #JCRB0134) and Flag-CK2α protein-expressing HEK293 cells. The MCF-7 cell line or Flag-CK2α-protein-expressing HEK293 cells were cultured, and washed with PBS, and then collected from the plate. A soluble fraction was partially purified from the cell lysate in accordance with common methods, and the anti-CK2α antibody (1 μg of six antibodies of the present invention or the control antibody) was added. Then, mixing was performed mildly at 4° C. for two hours, and then, Protein G-agarose beads were added, and a CK2α immune complex was formed. Then, the immunoprecipitates obtained by centrifugation were treated with SDS, and then electrophoresed. In Western blotting, the antibody of the present invention or the control antibody was used at 0.1 μg/mL.
The Western blotting performed with the control antibody detected, in the MCF-7 cell line, a band of the endogenous CK2α and in addition, a nonspecific band equal to or stronger than the band, and also detected, in the Flag-CK2α protein-expressing HEK293 cells, bands of the endogenous CK2α and Flag-CK2α, and in addition, a nonspecific band equal to or stronger than the bands.
For the molecule B1, the binding result is “binds”.
Still for that read-out and setting: next, B2: “binds”; B3: “binds”.

Another assay has as its target T2, recombinant human CK2α protein (human, UniProt P68400 1-391).
T2 construct: also called recombinant CK2α protein; Casein kinase 2 alpha 1
Put plainly: Western blotting on 0.05, 0.1 or 0.2 µg purified recombinant protein, antibody at 0.1 µg/mL. The method, then: Using mAb (6A3), mAb (10B2), mAb (15C1), mAb (16C2), mAb (19C2), and mAb (21B1) of the present invention, a purified product of recombinant CK2α protein was detected by Western blotting. The recombinant CK2α protein obtained by purifying the human-derived CK2α protein expressed by introducing the pGEX2T-CK2α gene in E. coli was used. The recombinant CK2α protein in an amount of 0.05 μg, 0.1 μg, or 0.2 μg was treated with SDS, electrophoresed, and was subjected to detection with six antibodies of the present invention at 0.1 μg/mL.
For B1, the binding result is recorded as “binds”.
B2: the binding result is reported as “binds”.
As for B3, the binding result is “binds”.
